# Reference: US10293026B2, “Agent for preventing or treating demyelinating disease” (Osaka University, priority 2014, dated 2019)
# B1: FGF21: Recombinant fibroblast growth factor 21 (R&D); the claimed active ingredient promoting oligodendrocyte precursor cell proliferation (protein, listed as Homo sapiens)
# chain: MDSDETGFEHSGLWVSVLAGLLLGACQAHPIPDSSPLLQFGGQVRQRYLYTDDAQQTEAHLEIREDGTVGGAADQSPESLLQLKALKPGVIQILGVKTSRFLCQRPDGALYGSLHFDPEACSFRELLLEDGYNVYQSEAHGLPLHLPGNKSPHRDPAPRGPARFLPLPGLPPALPEPPGILAPQPPDVGSSDPLSMVGPSQGRSPSYAS
# What was measured:
# [1] = system: human oligodendrocyte precursor cells; experiment: BrdU uptake by human oligodendrocyte precursor cells (Example 8); type: cell-based; parameters: dose or concentration left out as unconfirmed; details: recombinant human FGF21, human cells, vs saline control; significant difference; FIG. 8
# Experimental: Recombinant human FGF21 (R&D) was diluted in saline solution immediately before use to prepare an FGF21-containing solution. Human oligodendrocyte precursor cells (ScienCell) were also prepared.
# Initially, the oligodendrocyte precursor cells were seeded in a poly-L-lysinde-coated plastic tissue culture dish (Greiner Bio-One), and cultured in the following medium for 1 day (37° C., 5% CO2). The medium used was DMEM containing 4 mM L-gludamine (Sigma), 1 mM sodium pyruvate (Sigma), 0.1% bovine serum albumin (Sigma), 50 μg/ml apo-Transferrin (Sigma), 5 μg/ml insulin (Sigma), 30 nM sodium selenite (Sigma), 10 nM biotin (Sigma), 10 nM hydrocortisone (Sigma), 10 ng/ml Platelet-Derived Growth Factor-AA (Peprotech), 10 ng/ml basic fibroblast growth factor (Peprotech) 1 (v/v) %, and penicillin/streptomycin (Life Technologies). […] BrdU was subsequently added and cultured at 37° C. for 24 hours, and then the cells were collected; the BrdU uptake was then detected using the cell proliferation ELISA, BrdU colorimetric kit (Roche). As a control, an equivalent amount of saline solution was used instead of the FGF21-containing solution, and the BrdU uptake was measured under the same conditions as those described above. […]
# [2] = system: oligodendrocyte precursor cells in demyelination model mice; experiment: PDGFRα and Ki67 double-positive cells in spinal cord of demyelination model mice, osmotic pump administration (Example 4); type: in vivo, C57BL/6j mice; details: continuous local administration by osmotic pump for 7 days, 350 ng in total, vs saline, p<0.05, FIG. 4
# Experimental: Demyelination model mice were produced by topically administering 2 μl per mouse of lysophosphatidylcholine diluted to 1% (w/v) in saline solution into the spinal cord of C57BL/6j mice (female, 7-week-old).
# Osmotic pumps (ALZET) were filled with an FGF21-containing solution prepared by diluting recombinant FGF21 (R&D) to 4.17 μg/ml in saline solution, a cannula was attached to the tip of each pump, and the tip was attached to the site of lysophosphatidylcholine administration in each demyelination model mouse to continuously administer FGF21. After 7 days, the demyelination model mice were anesthetized and transcardially perfused with saline solution, and spinal cord tissue was harvested. Ultimately, 350 ng of FGF21 was administered. The spinal cord tissue was fixed with a 4% paraformaldehyde solution, which was then replaced with a 30% sucrose solution, and subsequently, frozen thin sections were prepared. The sections were immunostained using an anti-PDGFRα antibody and an anti-Ki67 antibody, and the number of PDGFRα and Ki67 double-positive cells in the sections was counted. PDGFRα is a marker for oligodendrocyte precursor cells, and Ki67 is a cell proliferation marker. As a control, saline solution was used, and the number of PDGFRα and Ki67 double-positive cells was counted under the same conditions as those described above. […]
molecule,measurement,setting,value
B1,BrdU uptake by the oligodendrocyte precursor cells,[1],markedly increased
same,number of PDGFRα and Ki67 double-positive cells,[2],increased
